Test results from patent US20250026782A1, “ACTIVATING APPENDAGES TO INDUCE POLYPHARMACOLOGY IN PEPTIDE HORMONE ANALOGUES, INCLUDING DUAL GLP-1R / GIP AGONISM” (Wisconsin Alumni Research Foundation, priority 2023, published 2025).
“Also recorded” adds a separate entry of the source. No end group written: not given here. B4 T2‑OMe = not defined here

Legend:
[1] = degraded by peptidases; cited from earlier work
[2] = molecular target: T1, GIP receptor (Homo sapiens, UniProt P48546); experiment: cAMP production assay, activation of GIPR (HEK 293 GS cells stably expressing GIPR); settings: result in words, EC50 values only in figures
T1 sequence (P48546 22-466): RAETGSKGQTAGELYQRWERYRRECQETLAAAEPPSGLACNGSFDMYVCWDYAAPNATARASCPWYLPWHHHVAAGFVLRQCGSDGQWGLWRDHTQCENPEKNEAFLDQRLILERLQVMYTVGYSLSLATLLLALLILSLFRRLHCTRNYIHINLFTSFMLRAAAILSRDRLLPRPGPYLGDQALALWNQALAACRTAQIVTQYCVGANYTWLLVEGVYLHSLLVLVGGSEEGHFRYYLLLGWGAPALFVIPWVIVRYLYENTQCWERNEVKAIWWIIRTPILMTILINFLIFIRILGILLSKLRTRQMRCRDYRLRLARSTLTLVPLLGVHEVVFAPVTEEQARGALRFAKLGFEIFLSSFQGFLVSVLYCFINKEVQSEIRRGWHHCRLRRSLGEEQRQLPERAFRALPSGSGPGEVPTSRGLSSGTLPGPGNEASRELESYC

[3] = molecular target: GLP-1 receptor (Homo sapiens, UniProt P43220); experiment: cAMP production assay, activation of GLP-1R (GloSensor HEK293 cells); format: cell-based; settings: result in words, EC50 values only in figures
Sequence of GLP-1 receptor (P43220 24-463): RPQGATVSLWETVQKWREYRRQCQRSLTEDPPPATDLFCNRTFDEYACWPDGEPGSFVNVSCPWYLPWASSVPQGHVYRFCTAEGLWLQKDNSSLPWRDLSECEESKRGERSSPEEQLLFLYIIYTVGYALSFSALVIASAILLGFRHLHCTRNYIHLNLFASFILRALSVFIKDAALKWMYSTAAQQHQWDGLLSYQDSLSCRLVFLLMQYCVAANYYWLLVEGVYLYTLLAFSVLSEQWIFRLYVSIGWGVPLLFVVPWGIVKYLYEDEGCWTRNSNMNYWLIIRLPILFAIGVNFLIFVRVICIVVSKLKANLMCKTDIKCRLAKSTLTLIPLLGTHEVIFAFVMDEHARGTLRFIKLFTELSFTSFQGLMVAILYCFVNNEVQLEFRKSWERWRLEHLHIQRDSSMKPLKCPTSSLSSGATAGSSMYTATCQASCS
Text: Cell medium was 0.22 μm-filtered DMEM supplemented with 10% (v/v) FBS (referred to as GS media) and penicillin/streptomycin.

For “GLP-1: glucagon-like peptide-1, native hormone, HAEGTFTSDVSSYLEGQAAKEFIAWLVKGRG”, the half-life in vivo [1] is listed as under 2 min, the “activation of the GIP receptor (agonist activity / potency)” value [2] is listed as “does not activate the GIP receptor; also recorded: no effect on the GIP receptor; also recorded: does not activate the GIPR” and the “activation of the GIP receptor (agonist activity / potency)” value ([2]; listed as GLP-1*) is listed as “acts as an agonist; also recorded: agonists of both GLP-1 receptor and GIP receptor; also recorded: greater activity than other tested appendages”.
With tirzepatide the “activation of the GLP-1 receptor (agonist activity / potency)” value [3] was “activation of the GLP-1 receptor”, the “activation of the GLP-1 receptor (agonist activity / potency)” value ([3]; listed as TZP) was “dual GLP-1R/GIPR” and the “activation of the GIP receptor (agonist activity / potency)” value [2] was “activation of the GIP receptor”. The “activation of the GIP receptor (agonist activity / potency)” value ([2]; listed as TZP) was “dual GLP-1R/GIPR”.
For “GIP (1-30): amidated truncated form of glucose-dependent insulinotropic polypeptide, YAEGTFISDY SIAMDKIHQQ DEVNWLLAQK-NH2”, the “activation of the GLP-1 receptor (agonist activity / potency)” value [3] was “does not activate the GLP-1 receptor”.
With “GLP-1 16 B4 T2-OMe: GLP-1 with position 16 B4 T2 side chain, OMe variant of bisphenol (HAEGTFTSDK(B4 T2‑OMe)SSYLEGQAAKEFIAWLVKGRG; reading uncertain)” the “activation of the GIP receptor (agonist activity / potency)” value [2] was “greater activity than other tested appendages”.
